In data set [1] the target is Tth DNA polymerase (UniProt P52028). Particulars: reverse transcription, manufacturer's conditions.
For data set [2], the system named is T1, DNA polymerase 3173 (uncultured hot spring virus (Octopus Spring)).
T1 sequence: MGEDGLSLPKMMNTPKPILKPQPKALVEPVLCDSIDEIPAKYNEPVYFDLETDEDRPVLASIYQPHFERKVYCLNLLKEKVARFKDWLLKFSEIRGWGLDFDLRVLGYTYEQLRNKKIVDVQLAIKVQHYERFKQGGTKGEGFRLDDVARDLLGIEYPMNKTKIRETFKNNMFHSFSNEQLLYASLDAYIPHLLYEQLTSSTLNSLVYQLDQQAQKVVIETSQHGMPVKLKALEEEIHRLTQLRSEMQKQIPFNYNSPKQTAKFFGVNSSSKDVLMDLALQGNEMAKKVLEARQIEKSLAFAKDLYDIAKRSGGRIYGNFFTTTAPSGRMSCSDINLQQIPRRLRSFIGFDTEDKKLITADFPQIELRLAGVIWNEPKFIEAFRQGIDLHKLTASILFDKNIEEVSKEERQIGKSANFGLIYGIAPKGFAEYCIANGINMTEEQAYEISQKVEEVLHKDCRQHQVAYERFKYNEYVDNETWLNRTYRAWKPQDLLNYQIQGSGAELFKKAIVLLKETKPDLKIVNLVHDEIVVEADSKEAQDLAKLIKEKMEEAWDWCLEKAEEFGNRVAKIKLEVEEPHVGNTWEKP
Particulars: reverse transcription, 60 C 20 min, MgCl2 and MnCl2.

For data set [3], the target named is MMLV reverse transcriptase (Moloney murine leukemia virus) (UniProt P03355). The note with it: reverse transcription, manufacturer's conditions.
Data set [4] deals with T1, DNA polymerase 3173 (uncultured hot spring virus (Octopus Spring)). Particulars: Km for primed M13 DNA; 70 C; dNTPs in excess.

For 2 substances, activity and K half results are on record in US20100291638.

UniProt P52028, sequence (P52028 whole entry): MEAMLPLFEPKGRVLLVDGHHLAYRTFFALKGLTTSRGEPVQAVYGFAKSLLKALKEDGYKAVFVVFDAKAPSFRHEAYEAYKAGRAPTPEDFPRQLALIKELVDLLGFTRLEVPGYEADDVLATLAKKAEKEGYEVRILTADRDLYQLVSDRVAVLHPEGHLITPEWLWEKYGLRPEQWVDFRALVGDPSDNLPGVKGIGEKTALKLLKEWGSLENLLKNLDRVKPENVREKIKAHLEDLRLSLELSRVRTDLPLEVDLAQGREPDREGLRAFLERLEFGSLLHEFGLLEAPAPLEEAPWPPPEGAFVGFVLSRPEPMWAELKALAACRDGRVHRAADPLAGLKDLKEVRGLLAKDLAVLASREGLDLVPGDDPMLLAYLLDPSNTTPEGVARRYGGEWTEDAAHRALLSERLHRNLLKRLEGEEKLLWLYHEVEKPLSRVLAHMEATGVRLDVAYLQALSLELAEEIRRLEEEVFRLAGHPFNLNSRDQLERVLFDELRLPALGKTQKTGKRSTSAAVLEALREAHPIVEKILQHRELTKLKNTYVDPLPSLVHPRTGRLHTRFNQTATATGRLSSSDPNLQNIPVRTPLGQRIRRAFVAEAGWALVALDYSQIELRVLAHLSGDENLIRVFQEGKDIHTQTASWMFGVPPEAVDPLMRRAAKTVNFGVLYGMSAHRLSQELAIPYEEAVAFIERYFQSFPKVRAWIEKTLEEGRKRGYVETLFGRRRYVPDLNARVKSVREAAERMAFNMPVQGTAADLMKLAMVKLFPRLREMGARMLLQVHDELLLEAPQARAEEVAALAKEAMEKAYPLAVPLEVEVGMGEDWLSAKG

Consider poly rA:oligo dT, for which the activity in data set [1] is 0.802 nmol dTTP; in data set [2], 1.04 nmol dTTP; in data set [3] it was 1.11 nmol dTTP.

In data set [4], primed single-stranded M13 DNA came in with a K half of 5.3 nM.
